What was measured:
fibrin = target: T1, fibrin; assay: binding of tPA variants to a solid-phase fibrin surface on PVC plates (3 independent experiments, 12 doses)
T1 chain 1: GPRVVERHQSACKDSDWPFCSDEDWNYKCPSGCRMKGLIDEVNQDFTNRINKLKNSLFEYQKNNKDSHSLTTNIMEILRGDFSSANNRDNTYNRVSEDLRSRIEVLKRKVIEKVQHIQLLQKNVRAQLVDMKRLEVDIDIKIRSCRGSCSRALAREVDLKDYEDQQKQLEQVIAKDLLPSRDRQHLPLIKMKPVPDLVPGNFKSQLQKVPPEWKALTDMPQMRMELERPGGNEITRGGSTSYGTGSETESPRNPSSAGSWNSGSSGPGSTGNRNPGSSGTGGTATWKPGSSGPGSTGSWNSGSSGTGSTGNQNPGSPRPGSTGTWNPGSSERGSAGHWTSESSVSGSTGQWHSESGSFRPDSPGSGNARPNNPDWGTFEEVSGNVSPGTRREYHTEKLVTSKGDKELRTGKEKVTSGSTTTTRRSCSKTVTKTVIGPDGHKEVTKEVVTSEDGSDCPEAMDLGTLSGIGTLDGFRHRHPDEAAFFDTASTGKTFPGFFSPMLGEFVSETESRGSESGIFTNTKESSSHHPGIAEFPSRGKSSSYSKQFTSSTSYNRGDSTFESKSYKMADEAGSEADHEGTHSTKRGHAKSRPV
T1 chain 2: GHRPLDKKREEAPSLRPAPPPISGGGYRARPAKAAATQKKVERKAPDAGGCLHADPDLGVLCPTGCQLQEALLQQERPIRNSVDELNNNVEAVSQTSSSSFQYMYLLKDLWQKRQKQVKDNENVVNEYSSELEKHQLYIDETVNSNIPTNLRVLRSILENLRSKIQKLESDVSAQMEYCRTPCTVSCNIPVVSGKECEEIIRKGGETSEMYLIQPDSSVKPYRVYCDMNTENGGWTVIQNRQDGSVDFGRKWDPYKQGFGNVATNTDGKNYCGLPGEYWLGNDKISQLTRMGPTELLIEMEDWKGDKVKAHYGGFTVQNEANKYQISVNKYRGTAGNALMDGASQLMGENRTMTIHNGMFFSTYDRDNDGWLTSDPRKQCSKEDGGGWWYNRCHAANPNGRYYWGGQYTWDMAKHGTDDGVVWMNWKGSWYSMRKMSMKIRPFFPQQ
T1 chain 3: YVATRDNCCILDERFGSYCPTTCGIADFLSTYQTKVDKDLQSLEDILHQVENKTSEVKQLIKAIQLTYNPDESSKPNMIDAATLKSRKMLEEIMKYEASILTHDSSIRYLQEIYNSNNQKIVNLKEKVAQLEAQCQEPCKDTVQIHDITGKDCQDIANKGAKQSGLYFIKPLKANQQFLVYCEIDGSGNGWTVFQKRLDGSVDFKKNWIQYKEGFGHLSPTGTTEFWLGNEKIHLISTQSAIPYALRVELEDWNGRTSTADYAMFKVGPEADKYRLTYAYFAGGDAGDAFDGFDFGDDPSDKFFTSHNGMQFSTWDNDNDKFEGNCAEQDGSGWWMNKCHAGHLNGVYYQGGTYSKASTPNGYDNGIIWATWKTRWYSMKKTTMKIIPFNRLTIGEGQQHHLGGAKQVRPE

[1] = target: N-methyl-D-aspartate receptor on primary cultured mouse cortical neurons (mouse, UniProt P35438 19-938); assay: cell-based or functional assay

| Kd (fibrin) | Binder | neuronal cell death (LDH release, cortical neurons, 0.3 uM) [1] |
| --- | --- | --- |
| 1.2 nM | rat single-chain tPA with arginine to serine point mutation at position 276 (R276S), 6xHis-tagged (enzyme, Present only in its single-chain form; also called sc*-tPA; rat sc*-tPA) HHHHHHSYRATCRDEQTQTTYQQHQSWLRPMLRGNRVEYCRCNSGLAQCHSVPVRSCSEPRCFNGGTCQQALYFSDFVCQCPDGFVGKRCDIDTRATCFEGQGITYRGTWSTAENGAECINWNSSALSQKPYSARRPNAIKLGLGNHNYCRNPDRDVRPWCYVFKAGKYTTEFCSTPACPKGPTEDCYVGKGVTYRGTHSFTTSKASCLPWNSMILIGKTYTAWRANSQALGLGRHNYCRNPDGDAKPWCHVMKDRKLTWEYCDMSPCSTCGLRQYKQPLFSIKGGLFTDITSHPWQAAIFVKNKRSPGERFLCGGVLISSCWVLSAAHCFVERFPPHHLKVVLGRTYRVVPGEEEQTFEIEKYIVHKEFDDDTYDNDIALLQLRSDSSQCAQESSSVGTACLPDPDVQLPDWTECELSGYGKHEASSPFFSDRLKEAHVRLYPSSRCTSQHLFNKTITSNMLCAGDTRTGGNQDVHDACQGDSGGPLVCMIDKRMTLLGIISWGLGCGQKDVPGIYTKVTNYLNWIQDNMKQ |  |
| 0.5 nM | rat tPA with tryptophan to arginine point mutation at position 254 (W254R), 6xHis-tagged (enzyme, also called K2*-tPA; tPA W254R) HHHHHHSYRATCRDEQTQTTYQQHQSWLRPMLRGNRVEYCRCNSGLAQCHSVPVRSCSEPRCFNGGTCQQALYFSDFVCQCPDGFVGKRCDIDTRATCFEGQGITYRGTWSTAENGAECINWNSSALSQKPYSARRPNAIKLGLGNHNYCRNPDRDVRPWCYVFKAGKYTTEFCSTPACPKGPTEDCYVGKGVTYRGTHSFTTSKASCLPWNSMILIGKTYTAWRANSQALGLGRHNYCRNPDGDAKPWCHVMKDRKLTREYCDMSPCSTCGLRQYKQPLFRIKGGLFTDITSHPWQAAIFVKNKRSPGERFLCGGVLISSCWVLSAAHCFVERFPPHHLKVVLGRTYRVVPGEEEQTFEIEKYIVHKEFDDDTYDNDIALLQLRSDSSQCAQESSSVGTACLPDPDVQLPDWTECELSGYGKHEASSPFFSDRLKEAHVRLYPSSRCTSQHLFNKTITSNMLCAGDTRTGGNQDVHDACQGDSGGPLVCMIDKRMTLLGIISWGLGCGQKDVPGIYTKVTNYLNWIQDNMKQ |  |
|  | human tPA containing the triple mutation P125R W253R R275S, 6xHis tag and linker at the N-terminus (enzyme) HHHHHHGSSYQVICRDEKTQMIYQQHQSWLRPVLRSNRVEYCWCNSGRAQCHSVPVKSCSEPRCFNGGTCQQALYFSDFVCQCPEGFAGKCCEIDTRATCYEDQGISYRGTWSTAESGAECTNWNSSALAQKRYSGRRPDAIRLGLGNHNYCRNPDRDSKPWCYVFKAGKYSSEFCSTPACSEGNSDCYFGNGSAYRGTHSLTESGASCLPWNSMILIGKVYTAQNPSAQALGLGKHNYCRNPDGDAKPWCHVLKNRRLTREYCDVPSCSTCGLRQYSQPQFSIKGGLFADIASHPWQAAIFAKHRRSPGERFLCGGILISSCWILSAAHCFQERFPPHHLTVILGRTYRVVPGEEEQKFEVEKYIVHKEFDDDTYDNDIALLQLKSDSSRCAQESSVVRTVCLPPADLQLPDWTECELSGYGKHEALSPFYSERLKEAHVRLYPSSRCTSQHLLNRTVTDNMLCAGDTRSGGPQANLHDACQGDSGGPLVCLNDGRMTLVGIISWGLGCGQKDVPGVYTKVTNYLDWIRDNMRP | 51% |
|  | human single-chain tPA with arginine to serine point mutation at position 275 (R275S), 6xHis tag and linker at the N-terminus (enzyme) HHHHHHGSSYQVICRDEKTQMIYQQHQSWLRPVLRSNRVEYCWCNSGRAQCHSVPVKSCSEPRCFNGGTCQQALYFSDFVCQCPEGFAGKCCEIDTRATCYEDQGISYRGTWSTAESGAECTNWNSSALAQKPYSGRRPDAIRLGLGNHNYCRNPDRDSKPWCYVFKAGKYSSEFCSTPACSEGNSDCYFGNGSAYRGTHSLTESGASCLPWNSMILIGKVYTAQNPSAQALGLGKHNYCRNPDGDAKPWCHVLKNRRLTWEYCDVPSCSTCGLRQYSQPQFSIKGGLFADIASHPWQAAIFAKHRRSPGERFLCGGILISSCWILSAAHCFQERFPPHHLTVILGRTYRVVPGEEEQKFEVEKYIVHKEFDDDTYDNDIALLQLKSDSSRCAQESSVVRTVCLPPADLQLPDWTECELSGYGKHEALSPFYSERLKEAHVRLYPSSRCTSQHLLNRTVTDNMLCAGDTRSGGPQANLHDACQGDSGGPLVCLNDGRMTLVGIISWGLGCGQKDVPGVYTKVTNYLDWIRDNMRP | 62% |
|  | human tPA containing a tryptophan to arginine point mutation at position 253 (W253R), 6xHis tag and linker at the N-terminus (enzyme) HHHHHHGSSYQVICRDEKTQMIYQQHQSWLRPVLRSNRVEYCWCNSGRAQCHSVPVKSCSEPRCFNGGTCQQALYFSDFVCQCPEGFAGKCCEIDTRATCYEDQGISYRGTWSTAESGAECTNWNSSALAQKPYSGRRPDAIRLGLGNHNYCRNPDRDSKPWCYVFKAGKYSSEFCSTPACSEGNSDCYFGNGSAYRGTHSLTESGASCLPWNSMILIGKVYTAQNPSAQALGLGKHNYCRNPDGDAKPWCHVLKNRRLTREYCDVPSCSTCGLRQYSQPQFRIKGGLFADIASHPWQAAIFAKHRRSPGERFLCGGILISSCWILSAAHCFQERFPPHHLTVILGRTYRVVPGEEEQKFEVEKYIVHKEFDDDTYDNDIALLQLKSDSSRCAQESSVVRTVCLPPADLQLPDWTECELSGYGKHEALSPFYSERLKEAHVRLYPSSRCTSQHLLNRTVTDNMLCAGDTRSGGPQANLHDACQGDSGGPLVCLNDGRMTLVGIISWGLGCGQKDVPGVYTKVTNYLDWIRDNMRP | 64% |
|  | human tPA containing the double mutation W253R R275S, 6xHis tag and linker at the N-terminus (enzyme) HHHHHHGSSYQVICRDEKTQMIYQQHQSWLRPVLRSNRVEYCWCNSGRAQCHSVPVKSCSEPRCFNGGTCQQALYFSDFVCQCPEGFAGKCCEIDTRATCYEDQGISYRGTWSTAESGAECTNWNSSALAQKPYSGRRPDAIRLGLGNHNYCRNPDRDSKPWCYVFKAGKYSSEFCSTPACSEGNSDCYFGNGSAYRGTHSLTESGASCLPWNSMILIGKVYTAQNPSAQALGLGKHNYCRNPDGDAKPWCHVLKNRRLTREYCDVPSCSTCGLRQYSQPQFSIKGGLFADIASHPWQAAIFAKHRRSPGERFLCGGILISSCWILSAAHCFQERFPPHHLTVILGRTYRVVPGEEEQKFEVEKYIVHKEFDDDTYDNDIALLQLKSDSSRCAQESSVVRTVCLPPADLQLPDWTECELSGYGKHEALSPFYSERLKEAHVRLYPSSRCTSQHLLNRTVTDNMLCAGDTRSGGPQANLHDACQGDSGGPLVCLNDGRMTLVGIISWGLGCGQKDVPGVYTKVTNYLDWIRDNMRP | 62% |
